Here are results for 4 molecules from patent publication US20230272029A1, “CO-AGONISTS AT GLP-1 AND GIP RECEPTORS SUITABLE FOR ORAL DELIVERY” (Novo Nordisk A/S, priority 2020, published 2023).

Data set [1] can be described thus: Pharmacokinetic study in dogs after oral dosing of tablets with SNAC. It is filed as in vivo, Beagle dogs. The following applies: dog, in vivo, po. Here is the method: The purpose of this example is to determine the half-life and plasma exposure in vivo of the compounds of the present invention after p.o. administration to beagle dogs, i.e. the terminal half-life and concentration of test substance that reaches circulation with time. This is done in a pharmacokinetic (PK) study, where these parameters of the compound in question are determined. By terminal half-life is generally meant the period of time it takes to halve a certain plasma concentration, measured after the initial distribution phase.
The amount of SNAC in the tablet composition was 100-300 mg, the amount of magnesium stearate in the tablet composition was 7.7 mg, and the target amount of each test substance in the tablet composition was 3-4 mg.
Male beagle dogs, 1-7 years of age and weighing 9-17 kg during the study period, were included in the study. The dogs were dosed in a fasting state. The dogs were group housed in pens (12 hours light: 12 hours dark), and fed individually and restrictedly once daily with Royal Canin Medium Adult dog food (Royal Canin Products, China Branch, or Brogaarden A/S, Denmark). The dogs were used for repeated PK studies with a suitable wash-out period between successive dosing. An appropriate acclimatization period was given prior to initiation of the first PK study. All handling, dosing, and blood sampling of the animals were performed by trained and skilled staff. Before the studies, the dogs were fasted overnight and from 0 to 4 hours after dosing. The dogs were restricted to water 1 hour before dosing until 4 hours after dosing, but otherwise had ad libitum access to water during the whole period.
The compositions were administered by a single oral dosing to the dogs in groups of 6-8 dogs. […] The mouth was then closed, and 10 mL of tap water was given by syringe or gavage to facilitate swallowing of the tablet.
For each blood sample time point, approximately 0.8 mL of whole blood was collected in a 1.5 mL EDTA-coated tube, which was gently turned to mix the sample with EDTA. Blood samples were collected in EDTA buffer (8 mM) and then centrifuged at 4° C. and 2000g for 10 minutes. Plasma was pipetted into Micronic tubes on dry ice, and kept at −20° C. or lower until analysis. Blood samples were taken as appropriate, for example from a venflon in the cephalic vein in the front leg for the first 2 hours and then with syringe from the jugular vein for the rest of the time points. The first few drops were allowed to drain from the venflon to avoid heparin saline from the venflon in the sample.
All blood samples were collected into test tubes containing EDTA for stabilisation and kept on ice until centrifugation. Plasma was separated from whole blood by centrifugation and the plasma was stored at −20° C. or lower until analysis.
The plasma was analysed for test substance using LC-MS (Liquid Chromatography-Mass Spectrometry) as known to the person skilled in the art. […] RP-HPLC separation was achieved using a linear gradient of 1:1 acetonitrile/methanol in 1% aqueous formic acid using either: a Phenomenex Onyx Monolithic C18 column (50×2.0 mm) and a flow rate of 0.8 mL/min at 30° C.; or an Agilent Poroshell 120 SB-C18 column (50×2.1 mm, 2.7 μm) at a flow rate of 0.4 mL/min at 60° C. The mass spectrometer was operated in either positive ionization SIM mode or positive ionization PRM mode.
For each individual animal, a plasma concentration-time profile was analysed by a non-compartmental model in Pharsight Phoenix WinNonLin ver. 6.4 software or other relevant software for PK analysis, and the resulting terminal half-life (t1/2), maximum plasma concentration per dose (Cmax/D), time for maximum plasma concentration (tmax), and area under the curve to infinity per dose (AUC/D) were determined. Summary statistics of pharmacokinetic results were presented as median (for tmax), harmonic mean ([…]), or arithmetic mean (Cmax, AUC).

The next data set has as its target human GLP-1 receptor (human, UniProt P43220 24-463). The data set is described as follows: cell-based or functional assay.
In another data set the target is T1, human GIP receptor (human, UniProt P48546 22-466).
T1 sequence (looked up): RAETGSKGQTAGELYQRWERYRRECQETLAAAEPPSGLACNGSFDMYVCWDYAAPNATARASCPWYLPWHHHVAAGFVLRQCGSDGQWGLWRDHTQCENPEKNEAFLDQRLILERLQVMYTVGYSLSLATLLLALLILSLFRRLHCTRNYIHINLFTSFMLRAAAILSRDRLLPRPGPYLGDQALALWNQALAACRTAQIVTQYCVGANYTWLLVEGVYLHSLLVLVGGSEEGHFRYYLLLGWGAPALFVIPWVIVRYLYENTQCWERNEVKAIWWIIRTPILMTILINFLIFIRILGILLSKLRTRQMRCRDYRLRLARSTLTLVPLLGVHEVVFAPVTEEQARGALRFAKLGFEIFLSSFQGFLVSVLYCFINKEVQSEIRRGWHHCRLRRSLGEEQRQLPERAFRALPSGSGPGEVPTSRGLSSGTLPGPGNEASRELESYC
As to the kind of experiment: cell-based or functional assay.

Starred links: 1 amine or outer side, 2 acyl side, 3 side chain; linkers in the order of their positions; H or OH if unused. Non-standard residues stand in square brackets, D forms with d. Residues, ends and D or L forms follow the SMILES beside them. Groups on a side chain read outwards from the residue. No end group written: not given here. *: point of attachment. C20 diacid = O=C(O)CCCCCCCCCCCCCCCCCCC(=O)*; C18 diacid = O=C(O)CCCCCCCCCCCCCCCCC(=O)*; γGlu = O=C(O)[C@H](CCC(=O)[*:2])N[*:1]; εLys = N[C@@H](CCCCN[*:1])C(=O)[*:2]; Aib = CC(C)(N)C(=O)O

In data set [1], `CC[C@H](C)[C@H](NC(=O)[C@H](Cc1ccccc1)NC(=O)[C@H](CCC(=O)O)NC(=O)[C@H](CCCNC(=N)N)NC(=O)[C@H](C)NC(=O)[C@H](C)NC(=O)[C@H](CCC(N)=O)NC(=O)[C@H](CCCCNC(=O)[C@@H](N)CCCCNC(=O)[C@@H](N)CCCCNC(=O)CC[C@H](NC(=O)CCCCCCCCCCCCCCCCC(=O)O)C(=O)O)NC(=O)[C@H](CCC(=O)O)NC(=O)[C@H](CC(C)C)NC(=O)[C@H](Cc1ccc(O)cc1)NC(=O)[C@@H](NC(=O)[C@H](CO)NC(=O)[C@H](Cc1ccc(O)cc1)NC(=O)[C@H](CC(=O)O)NC(=O)[C@H](CO)NC(=O)[C@@H](NC(=O)[C@H](Cc1ccccc1)NC(=O)[C@@H](NC(=O)CNC(=O)[C@H](CCC(=O)O)NC(=O)C(C)(C)NC(=O)[C@@H](N)Cc1ccc(O)cc1)[C@@H](C)O)[C@@H](C)O)[C@@H](C)CC)C(=O)N[C@@H](CC(N)=O)C(=O)N[C@@H](Cc1c[nH]c2ccccc12)C(=O)N[C@@H](CC(C)C)C(=O)N[C@@H](CC(C)C)C(=O)N[C@@H](C)C(=O)NCC(=O)NCC(=O)N1CCC[C@H]1C(=O)N[C@@H](CO)C(=O)N[C@@H](CO)C(=O)NCC(=O)N[C@@H](C)C(=O)N1CCC[C@H]1C(=O)N1CCC[C@H]1C(=O)N1CCC[C@H]1C(=O)N[C@@H](CO)C(=O)O` [Compound No. 11] (H-Y[Aib]EGTFTSDYSIYLEK([εLys-εLys-γGlu-C18 diacid])QAAREFINWLLAGGPSSGAPPPS-OH) gave an AUC/Dose of 7.1 kg·h/L and a Cmax/Dose of 0.19 kg/L.

B1: Compound No. 16 (peptide)
peptide: Y[Aib]EGTFTSDYSIYLEK([εLys-εLys-γGlu-C20 diacid])QAAREFINWLLAGGPSSGAPPPS-OH
modifications: N-terminus assumed
SMILES: CC[C@H](C)[C@H](NC(=O)[C@H](Cc1ccccc1)NC(=O)[C@H](CCC(=O)O)NC(=O)[C@H](CCCNC(=N)N)NC(=O)[C@H](C)NC(=O)[C@H](C)NC(=O)[C@H](CCC(N)=O)NC(=O)[C@H](CCCCNC(=O)[C@@H](N)CCCCNC(=O)[C@@H](N)CCCCNC(=O)CC[C@H](NC(=O)CCCCCCCCCCCCCCCCCCC(=O)O)C(=O)O)NC(=O)[C@H](CCC(=O)O)NC(=O)[C@H](CC(C)C)NC(=O)[C@H](Cc1ccc(O)cc1)NC(=O)[C@@H](NC(=O)[C@H](CO)NC(=O)[C@H](Cc1ccc(O)cc1)NC(=O)[C@H](CC(=O)O)NC(=O)[C@H](CO)NC(=O)[C@@H](NC(=O)[C@H](Cc1ccccc1)NC(=O)[C@@H](NC(=O)CNC(=O)[C@H](CCC(=O)O)NC(=O)C(C)(C)NC(=O)[C@@H](N)Cc1ccc(O)cc1)[C@@H](C)O)[C@@H](C)O)[C@@H](C)CC)C(=O)N[C@@H](CC(N)=O)C(=O)N[C@@H](Cc1c[nH]c2ccccc12)C(=O)N[C@@H](CC(C)C)C(=O)N[C@@H](CC(C)C)C(=O)N[C@@H](C)C(=O)NCC(=O)NCC(=O)N1CCC[C@H]1C(=O)N[C@@H](CO)C(=O)N[C@@H](CO)C(=O)NCC(=O)N[C@@H](C)C(=O)N1CCC[C@H]1C(=O)N1CCC[C@H]1C(=O)N1CCC[C@H]1C(=O)N[C@@H](CO)C(=O)O
As to B1, in the data set with human GLP-1 receptor, the “hGLP-1R, CRE Luc 0% HSA EC50 (pM)” value came to 3.1 pM and the “hGLP-1R, CRE Luc 1% HSA EC50 (pM)” value worked out at 321 pM. Moreover, in the data set with human GIP receptor, the “hGIPR, CRE Luc 0% HSA EC50 (pM)” value was 13.4 pM and the “hGIPR, CRE Luc 1% HSA EC50 (pM)” value was determined as 804 pM.

B2: Compound No. 38 (peptide)
peptide: Y[Aib]EGTFTSDYSIYLEEK([εLys-εLys-γGlu-C18 diacid])AAREFINWLLAGGPSSGAPPPS-OH
modifications: N-terminus assumed
SMILES: CC[C@H](C)[C@H](NC(=O)[C@H](Cc1ccccc1)NC(=O)[C@H](CCC(=O)O)NC(=O)[C@H](CCCNC(=N)N)NC(=O)[C@H](C)NC(=O)[C@H](C)NC(=O)[C@H](CCCCNC(=O)[C@@H](N)CCCCNC(=O)[C@@H](N)CCCCNC(=O)CC[C@H](NC(=O)CCCCCCCCCCCCCCCCC(=O)O)C(=O)O)NC(=O)[C@H](CCC(=O)O)NC(=O)[C@H](CCC(=O)O)NC(=O)[C@H](CC(C)C)NC(=O)[C@H](Cc1ccc(O)cc1)NC(=O)[C@@H](NC(=O)[C@H](CO)NC(=O)[C@H](Cc1ccc(O)cc1)NC(=O)[C@H](CC(=O)O)NC(=O)[C@H](CO)NC(=O)[C@@H](NC(=O)[C@H](Cc1ccccc1)NC(=O)[C@@H](NC(=O)CNC(=O)[C@H](CCC(=O)O)NC(=O)C(C)(C)NC(=O)[C@@H](N)Cc1ccc(O)cc1)[C@@H](C)O)[C@@H](C)O)[C@@H](C)CC)C(=O)N[C@@H](CC(N)=O)C(=O)N[C@@H](Cc1c[nH]c2ccccc12)C(=O)N[C@@H](CC(C)C)C(=O)N[C@@H](CC(C)C)C(=O)N[C@@H](C)C(=O)NCC(=O)NCC(=O)N1CCC[C@H]1C(=O)N[C@@H](CO)C(=O)N[C@@H](CO)C(=O)NCC(=O)N[C@@H](C)C(=O)N1CCC[C@H]1C(=O)N1CCC[C@H]1C(=O)N1CCC[C@H]1C(=O)N[C@@H](CO)C(=O)O
Turning to B2, in the data set with human GLP-1 receptor, the “hGLP-1R, CRE Luc 0% HSA EC50 (pM)” value is 3.1 pM and the “hGLP-1R, CRE Luc 1% HSA EC50 (pM)” value worked out at 259 pM. Moreover, in the data set with human GIP receptor, the “hGIPR, CRE Luc 0% HSA EC50 (pM)” value turned out to be 12.4 pM and the “hGIPR, CRE Luc 1% HSA EC50 (pM)” value came to 815 pM.

B3: Compound No. 17 (peptide)
peptide: YAEGTFTSDYSIYLEK([εLys-εLys-γGlu-C18 diacid])QAAREFINWLLAGGPSSGAPPPS-OH
modifications: N-terminus assumed
SMILES: CC[C@H](C)[C@H](NC(=O)[C@H](Cc1ccccc1)NC(=O)[C@H](CCC(=O)O)NC(=O)[C@H](CCCNC(=N)N)NC(=O)[C@H](C)NC(=O)[C@H](C)NC(=O)[C@H](CCC(N)=O)NC(=O)[C@H](CCCCNC(=O)[C@@H](N)CCCCNC(=O)[C@@H](N)CCCCNC(=O)CC[C@H](NC(=O)CCCCCCCCCCCCCCCCC(=O)O)C(=O)O)NC(=O)[C@H](CCC(=O)O)NC(=O)[C@H](CC(C)C)NC(=O)[C@H](Cc1ccc(O)cc1)NC(=O)[C@@H](NC(=O)[C@H](CO)NC(=O)[C@H](Cc1ccc(O)cc1)NC(=O)[C@H](CC(=O)O)NC(=O)[C@H](CO)NC(=O)[C@@H](NC(=O)[C@H](Cc1ccccc1)NC(=O)[C@@H](NC(=O)CNC(=O)[C@H](CCC(=O)O)NC(=O)[C@H](C)NC(=O)[C@@H](N)Cc1ccc(O)cc1)[C@@H](C)O)[C@@H](C)O)[C@@H](C)CC)C(=O)N[C@@H](CC(N)=O)C(=O)N[C@@H](Cc1c[nH]c2ccccc12)C(=O)N[C@@H](CC(C)C)C(=O)N[C@@H](CC(C)C)C(=O)N[C@@H](C)C(=O)NCC(=O)NCC(=O)N1CCC[C@H]1C(=O)N[C@@H](CO)C(=O)N[C@@H](CO)C(=O)NCC(=O)N[C@@H](C)C(=O)N1CCC[C@H]1C(=O)N1CCC[C@H]1C(=O)N1CCC[C@H]1C(=O)N[C@@H](CO)C(=O)O
Regarding B3, in the data set with human GLP-1 receptor, the “hGLP-1R, CRE Luc 0% HSA EC50 (pM)” value worked out at 5.2 pM and the “hGLP-1R, CRE Luc 1% HSA EC50 (pM)” value was determined as 257 pM. For the same molecule, in the data set with human GIP receptor, the “hGIPR, CRE Luc 0% HSA EC50 (pM)” value came out at 34.9 pM and the “hGIPR, CRE Luc 1% HSA EC50 (pM)” value was 1320 pM.
